Molecular target: T1, N-terminally truncated tyrosine phosphorylated STAT1 (residues 136 to 750, N-terminally tagged with GB1) (UniProt P42224 136-750)
T1 sequence: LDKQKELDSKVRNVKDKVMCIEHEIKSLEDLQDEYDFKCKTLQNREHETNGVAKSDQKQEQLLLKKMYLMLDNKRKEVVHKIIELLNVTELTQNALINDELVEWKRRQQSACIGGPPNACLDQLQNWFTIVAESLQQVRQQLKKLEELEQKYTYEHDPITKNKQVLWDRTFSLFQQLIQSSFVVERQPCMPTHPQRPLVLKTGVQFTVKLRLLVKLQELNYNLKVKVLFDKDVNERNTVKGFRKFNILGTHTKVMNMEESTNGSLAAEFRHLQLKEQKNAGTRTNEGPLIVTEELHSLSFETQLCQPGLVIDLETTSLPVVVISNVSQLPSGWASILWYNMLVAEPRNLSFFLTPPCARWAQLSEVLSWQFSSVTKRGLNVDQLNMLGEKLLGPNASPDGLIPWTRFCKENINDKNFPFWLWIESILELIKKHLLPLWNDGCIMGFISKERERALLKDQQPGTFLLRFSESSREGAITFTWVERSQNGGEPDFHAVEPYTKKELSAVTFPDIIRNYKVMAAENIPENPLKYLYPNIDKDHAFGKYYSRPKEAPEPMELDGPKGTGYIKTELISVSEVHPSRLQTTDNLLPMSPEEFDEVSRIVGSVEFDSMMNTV
Assay: ITC

B1: Rabies virus (strain Nishigahara) P3 protein (natural protein)
chain: MSRLHLDDGKLPDLGRMSKAGEGRHQEDFQMDEGEDPSLLFQSYLDNVGVQIVRQMRSGERFLKIWSQTVEEIISYVTVNFPNPSGRSSEDKSTQTTSQEPKKETTSTPSQRKSQSLKSRTMAQTASGPPSLEWSATNEEDDLSVEAEIAHQIAESFSKKYKFPSRSSGIFLYNFEQLKMNLDDIVKEAKNVPGVTRLAHDGSKLPLRCVLGWVALANSKKFQLLVEANKLNKIMQDDLNRYASC
Kd: 800 nM

From publication PMC10083601 (Proceedings of the National Academy of Sciences of the …, 2023)
